In patent US20250270343A1 (Alector, published 2025):

Experiments:
[1] = target: T1, mouse GPNMB endogenously expressed on B16F10 cells (mouse, UniProt Q99P91 23-574); assay: FACS, B16F10 cells
T1 construct: whole, on cells; also called moGPNMB
T1 sequence (looked up): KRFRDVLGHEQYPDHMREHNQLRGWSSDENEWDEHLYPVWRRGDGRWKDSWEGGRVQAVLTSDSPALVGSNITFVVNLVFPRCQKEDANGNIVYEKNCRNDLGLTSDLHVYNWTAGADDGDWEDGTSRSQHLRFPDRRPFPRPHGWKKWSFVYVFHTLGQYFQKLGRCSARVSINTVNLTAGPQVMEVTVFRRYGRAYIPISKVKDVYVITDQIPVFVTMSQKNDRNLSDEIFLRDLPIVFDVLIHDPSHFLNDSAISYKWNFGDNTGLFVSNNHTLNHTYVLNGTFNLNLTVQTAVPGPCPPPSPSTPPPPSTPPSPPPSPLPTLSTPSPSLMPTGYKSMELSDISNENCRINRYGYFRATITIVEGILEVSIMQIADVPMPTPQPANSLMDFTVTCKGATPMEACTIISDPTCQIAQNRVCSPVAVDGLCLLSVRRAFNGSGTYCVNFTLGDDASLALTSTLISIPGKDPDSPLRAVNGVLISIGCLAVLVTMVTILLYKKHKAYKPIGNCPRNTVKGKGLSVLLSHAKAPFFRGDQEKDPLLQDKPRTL
Description: Recombinant anti-GPNMB antibodies of the present disclosure were examined for their ability to bind human and/or mouse GPNMB expressed on Freestyle293-huGPNMB+ or B16F10 cells, respectively. B16F10 cells are a murine melanoma cell line from a C57BL/6J mouse that endogenously express high levels of mouse GPNMB. The antibodies were also tested for their ability to bind to a human macrophage cell line (U937 cells) engineered to express human GPNMB. Cells were harvested, plated at 100,000 cells/well in a 96-well round bottom plate, and incubated in 100 μl FACS buffer (PBS containing 2% FBS, 2 mM EDTA) containing anti-GPNMB monoclonal antibodies of the present disclosure for 30 minutes on ice. Cells were then washed and incubated in 100 ul FACS buffer containing 1 μg/ml APC-conjugated anti-human IgG secondary antibody for 30 minutes in ice. Cells were washed twice in cold FACS buffer and acquired on a BD FACS Canto. Data analysis and calculation of MFI values was performed with FlowJo (TreeStar) software version 10.0.7. […]

[2] = target: T2, full-length untagged human GPNMB expressed on cells (human, UniProt Q14956 23-572); assay: cell-based or functional assay
T2 sequence: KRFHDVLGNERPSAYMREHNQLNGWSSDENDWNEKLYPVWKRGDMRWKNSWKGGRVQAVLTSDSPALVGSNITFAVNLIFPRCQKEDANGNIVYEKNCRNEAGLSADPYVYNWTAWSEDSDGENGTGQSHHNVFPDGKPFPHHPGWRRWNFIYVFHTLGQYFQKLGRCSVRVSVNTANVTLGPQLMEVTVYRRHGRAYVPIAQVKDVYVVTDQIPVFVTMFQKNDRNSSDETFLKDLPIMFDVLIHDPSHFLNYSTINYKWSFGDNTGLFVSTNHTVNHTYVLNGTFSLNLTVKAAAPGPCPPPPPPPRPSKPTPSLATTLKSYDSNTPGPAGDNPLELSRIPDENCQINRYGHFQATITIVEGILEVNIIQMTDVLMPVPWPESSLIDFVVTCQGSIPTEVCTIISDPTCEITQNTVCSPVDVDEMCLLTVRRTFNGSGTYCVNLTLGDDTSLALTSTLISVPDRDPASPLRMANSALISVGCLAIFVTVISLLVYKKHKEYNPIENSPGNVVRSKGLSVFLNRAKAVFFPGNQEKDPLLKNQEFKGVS

[3] = target: T3, soluble human GPNMB (recombinant extracellular domain) (human, UniProt Q14956 23-498); assay: SPR Carterra, Ab immobilized
T3 construct: also called huGPNMB; recombinant human GPNMB extracellular domain; not shown: C-terminal polyhistidine or Avi-His tag
T3 sequence: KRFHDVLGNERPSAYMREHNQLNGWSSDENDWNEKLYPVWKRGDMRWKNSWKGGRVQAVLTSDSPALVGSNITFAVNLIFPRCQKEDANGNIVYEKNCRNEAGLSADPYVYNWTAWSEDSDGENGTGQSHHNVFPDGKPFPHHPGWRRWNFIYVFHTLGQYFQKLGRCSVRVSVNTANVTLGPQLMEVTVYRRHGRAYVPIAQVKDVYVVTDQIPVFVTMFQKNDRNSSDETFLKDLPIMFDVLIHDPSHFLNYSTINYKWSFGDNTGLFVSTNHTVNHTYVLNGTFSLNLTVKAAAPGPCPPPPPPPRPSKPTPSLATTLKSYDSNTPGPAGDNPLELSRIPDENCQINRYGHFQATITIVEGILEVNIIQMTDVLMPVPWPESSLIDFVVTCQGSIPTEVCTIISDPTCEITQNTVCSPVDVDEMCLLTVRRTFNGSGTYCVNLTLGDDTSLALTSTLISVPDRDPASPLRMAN
Description: Binding kinetics of human anti-GPNMB IgG1 antibodies of the present disclosure to human, cynomolgus, and mouse GPNMB were evaluated using a Carterra LSA instrument (Carterra, Salt Lake City, UT). […] A HC200M sensor chip (Carterra) was activated using the single channel flow cell with a 7-minute injection of a 1:1:1 mixture of 100 mM MES pH 5.5, 100 mM sulfo-NHS, 400 mM EDC (all reconstituted in MES pH 5.5; 100 μl of each mixed in vial immediately before running assay). After switching to the multi-channel array flow cell, the antibodies were injected over the activated chip in a 96-spot array for 15 minutes. The remaining unconjugated active groups on the chip were then blocked by injecting 1M Ethanolamine pH 8.5 (Carterra) for 7 minutes using the single channel flow cell.
After priming with running buffer (HBS-EP+, Teknova) with 0.5 mg/ml BSA (Sigma), the immobilized anti-GPNMB antibodies were tested for their ability to bind to several forms of recombinant GPNMB extracellular domain, including human, cynomolgus, and mouse orthologs as described above. Estimates of affinity were generated by injecting each analyte over the entire antibody array using the single channel flow cell. GPNMB analytes were diluted to 2.5, 7.4, 22, 67, 200, and 600 nM in running buffer, and injected in serial from lowest to highest concentration without regeneration. Two buffer blanks were run between each series (one species per series). Data were processed and analyzed using Kinetics high-throughput kinetics analysis software (Carterra).

Binder | MFI fold over background [1] [fold] | CD40 (FoB) [2] [FoB] | CD80 (FoB) [2] [FoB] | GCase (FoB) [2] [FoB] | PDL1 (FoB) [2] [FoB] | Kd [3] [nM] | koff [3] [s⁻¹] | kon [3] [M⁻¹ s⁻¹]
anti-GPNMB antibody GPN-35 (antibody, human IgG1, V domains shown, chimeric) VH: EVQLVESGGGSVRPGRSLKLSCAAAGFTFSDYYMTWVRQAPTKGLEWVASINHDGGGTYYRDSVKGRFTISRDNARSSLYLQMDSLRSEDTGTYYCTTRAGWHWGQGVMVTVSS VL: DIQMTQSPASLSASLGETVSIECLASEDIYNYLTWYQQKPGKSPQVLIYSASGLQDGVPSRFSGSGSGRQYSLKINGLESEDAATYFCLQDSEYPLTFGSGTKLEIK | 15.4 | 1.31 | 1.22 | 0.9 | 1.3 | 21 | 0.0015 | 71000
anti-GPNMB antibody GPN-41 (antibody, human IgG1, V domains shown, chimeric) VH: QLQLQQSGTEVVKPGASVKIPCKASGYAFSSYWMNWVKQRPGKGLEWIGQIYPGDGDTNDNGKFEGKATLTVDKSSNTAYIQLSSLTSEDSAVYFCARSPLHLRGSMDYWGQGTSVTVSS VL: SIVMTQTPKFLLVSAGDRVTITCKASQSVSNDVAWFQQKPGQSPELLIYSASNRYTGVPDRFTASGYGTDFTFTISAVQAEDLAVYFCQQNYYSPFTFGGGTRLEIK | 15 | – | – | – | – | 0.441 | 8.2e-05 | 200000
anti-GPNMB antibody GPN-65 (antibody, human IgG1, V domains shown, chimeric) VH: QLQLQQSGTEVVKPGASVKIPCKASGYAFSSYWMNWVKQRPGKGLEWIGQIYPGDGDTNDNGKFEGKATLTVDKSSNTAYIQLSSLTSEDSAVYFCARSPLHLRGSMDYWGQGTSVTVSS VL: SIVMTQTPKFLLVSAGDRVTITCKASQSVSNDVAWFQQKPGQSPELLIYSASNRYTGVPDRFTGSGYGTDFTFTISTVQAEDLAVYFCQQNYYSPFTFGGGTRLEIK | 6.9 | – | – | – | – | 0.49 | 0.0001 | 210000
anti-GPNMB antibody GPN-43 (antibody, human IgG1, V domains shown, chimeric) VH: EVQLQQSGPELVKPGASVKISCKASGYTFTDYYMNWVRQSHGKSLEWIGDINPYHGGSTYNQKIKVKATLTVDKSSSTAYMELRSLTSEDSAVYYCARNWPYFDYWGQGTTLTVSS VL: DIQMTQSPASLSASVGETVTITCRASENIYSFLVWYQQKQGKSPQLLVYNAKTLAEGVPSRFSGSGSGTQFSLKISSLQPEDFGSYYCQHHFGTPPYTFGGGTKLEIK | 1.6 | 1.06 | 1.08 | 1.01 | 1.05 | 111 | 0.002 | 18000
anti-GPNMB antibody GPN-52 (antibody, human IgG1, V domains shown, chimeric) VH: DVQLQESGPGLVKPSQTVFLTCTVTGISITTGNYRWSWIRQFPGNKLEWIGYIYYSGTITYNPSLTSRITITRDTPKNEFFLEMNSLTAEDTATYYCARDLTHWYFDVWGTGTTVTVSS VL: not shown | 3.4 | 1.53 | 1.46 | – | 1.44 | 37.9 | 0.0032 | 86000
anti-GPNMB antibody GPN-61 (antibody, human IgG1, V domains shown, chimeric) VH: DVQLQESGPGLVKPSQTVFLTCTVTGISITTGNYRWSWIRQFPGNKLEWIGYIYYSGTITYNPSLTSRTTITRDTPKNQFFLEMSSLTAEDTATYFCARDLRHWYFDVWGTGTTVTVSS VL: not shown | – | 1.61 | 1.5 | 1.46 | 1.52 | 50.1 | 0.0035 | 71000
anti-GPNMB antibody GPN-38 (antibody, human IgG1, V domains shown, chimeric) VH: QVQLQQPGAELVRPGTSVRLSCKASGYTFTSYWIHWVKQRPGRGLEWIGVIDPSDSYTNYNQQFNVKATLTVDTSSSAAYMQLSSLTSEDSAVYYCARGLITAVNWYFDVWGTGTTVTVSS VL: DIQMTQSPASLSTSVGEIVTITCRASENIYSYLTWYQQKQGKSPQLLVYNAKTLAEGVPSRFSGSGSGTQFSLKINSLQPEDFGTYYCQHHYGTPLTFGSGTKLEIK | 5.1 | 1.01 | 1.03 | – | 1.03 | 4.92 | 0.00053 | 110000
anti-GPNMB antibody GPN-42 (antibody, human IgG1, V domains shown, chimeric) VH: DVKLVESGEDLVKPGGSLKLSCAASGFTFSSYAMSWVRQTPEKRLEWVAYISSGGDYIYYADTVKGRFTISRDNARNTLYLQMSSLKSEDTAMYYCTRDRYYDYDVRDYYTMDYWGQGTSVTVSS VL: DVMMTQTPLSLPVSLGDQASISCRSSQSLVHSNGNTYLHWFLQKPGQSPKLLIFRVSNRFSGVPDRFSGRGSGTDFTLKISRVEAEDLGVYFCSQTTHVPRTFGGGTTLEIK | 2.6 | – | – | – | – | 6.1 | 8.3e-05 | 14000
anti-GPNMB antibody GPN-48 (antibody, human IgG1, V domains shown, chimeric) VH: QVQLQQSGPELVKPGASVKLSCRASGYGFSSFWMNWVKQRPGKGLEWIGRIYPGKGDTLYNGKFKDKATLTADESSSTAYMQLSSLTSEDSAVYFCARSIYYYDYWYFDVWDTGTTVTVSS VL: DIVMTQSHKFMSTSVGDRVNITCKASQDVNSAIAWYQQKPGQSPKLLIYSASYRFIGVPDRFTGSGSGTGFTFTISSVQAEDLAVYYCQQHYTTPLTFGAGTKLELK | – | 1.06 | 1.06 | 1.02 | 1.14 | 1.1 | 0.00037 | 330000
